Data published in article PMC9239242 (mBio, 2022).

Tests used:
[1] = biological target: T1, E. coli RNA polymerase holoenzyme (native) (E. coli, UniProt P0A8V2 1-1342; P0A8T7 1-1407; P00579 1-613; P0A7Z4 1-329; P0A800 1-91); assay: cell-based or functional assay
[2] = biological target: T1, E. coli RNA polymerase holoenzyme …; details: both partners purified

| Binder | IC50 for inhibition of rrnB P1 transcription, multiround in vitro transcription with E. coli RNAP (4 nM to 2,000 nM factor) [1] | IC50 [2] |
| --- | --- | --- |
| VP882 Orf61 (Orf61 from Vibrio phage VP882) (natural protein) SDIADQAQDVIEQHLTASLANRKHNINPAIPSAKHCDDCESEIPEARRRSLPGVRLCVDCASLQEIKGRHQR | 270 nM | 1700 nM |
| λ Orf73 (Orf73 from bacteriophage lambda) (natural protein) ADIIDSASEIEELQRNTAIKMRRLNHQAISATHCCECGDPIDERRRLVVQGCRTCASCQEDLELISKQRGSK | ~50 nM |  |
| VHML Orf8 (Orf8 from Vibrio phage VHML) (natural protein) MTDCSADPLDRAAALSQAHLEVSLSRIKKFEGVSAHECVECGSEIPKKRRELLQGVTDCVDCAAIKETLSKNYMR | 800 nM | 3000 nM |
